Molecular target: human Claudin 18.2 (human)
Experiment: cell-based or functional assay

B1: h1901-11 (antibody, human IgG1, kappa, V domains shown)
VH: EVQLVESGGGLVQPGGSLRLSCAASGFTFSDYGIHWVRQAPGKGLEWIAYISRGSSTIYYADTVKGRFTISRDNAKNSLYLQMTSLRAEDTAVYYCARGGYDTRNAMDYWGQGTTVTVSS
VL: DIVMTQSPDSLAVSLGERATISCKSSQSLLNSGNQKNYLAWYQQKPGQPPKLLIYGASTRASGVPDRFSGSGSGTDFTLTISSLQAEDVAIYHCQNDLYYPLTFGQGTKLEIKR
IC50 (ng/ml), ADCC effect (FcrR3A-V158-NFAT-RE-Jurkat effector cells, Bright-Glo), NUGC4 cells with high expression of Claudin 18.2: 26.2 ng/mL | IC50 (ng/ml), ADCC effect (FcrR3A-V158-NFAT-RE-Jurkat effector cells, Bright-Glo), NUGC4 cells with low expression of Claudin 18.2: 22.4 ng/mL | IC50 (ng/ml), ADCC effect (FcrR3A-V158-NFAT-RE-Jurkat effector cells, Bright-Glo), NUGC4 cells with medium expression of Claudin 18.2: 15.3 ng/mL

B2: IMAB-362 (antibody, human IgG1, kappa, V domains shown)
VH: QVQLQQPGAELVRPGASVKLSCKASGYTFTSYWINWVKQRPGQGLEWIGNIYPSDSYTNYNQKFKDKATLTVDKSSSTAYMQLSSPTSEDSAVYYCTRSWRGNSFDYWGQGTTLTVSS
VL: DIVMTQSPSSLTVTAGEKVTMSCKSSQSLLNSGNQKNYLTWYQQKPGQPPKLLIYWASTRESGVPDRFTGSGSGTDFTLTISSVQAEDLAVYYCQNDYSYPFTFGSGTKLEIKR
IC50 (ng/ml), ADCC effect (FcrR3A-V158-NFAT-RE-Jurkat effector cells, Bright-Glo), NUGC4 cells with high expression of Claudin 18.2: 133 ng/mL | IC50 (ng/ml), ADCC effect (FcrR3A-V158-NFAT-RE-Jurkat effector cells, Bright-Glo), NUGC4 cells with low expression of Claudin 18.2: 183 ng/mL | IC50 (ng/ml), ADCC effect (FcrR3A-V158-NFAT-RE-Jurkat effector cells, Bright-Glo), NUGC4 cells with medium expression of Claudin 18.2: 210 ng/mL

From US20220185881A1 (JIANGSU HENGRUI MEDICINE, published 2022)
